Source: patent US20210162028A1, “Methods for Inducing Intermittent Fasting and Modulating Autophagy” (The Hong Kong Polytechnic University, priority 2019, published 2021)
Entries after “also recorded” stand apart in the source; their conditions may differ.

Legend:
Type in all cases: in vivo, mouse
[1] = Inverted grid hanging test
hepatocellular carcinoma = test: Frequency of hepatocellular carcinoma at autopsy
Text: Development of neoplasm in the liver is one of the major characteristics of aging in C57BL/6J male mice with long-term feeding on a HFD, which may be related to the development of severe non-alcoholic fatty liver disease. Treatment with N-ABD094-rhArg [SEQ ID NO: 50] can effectively reverts hepatic steatosis and lower serum concentrations of liver damage biomakers ALT and AST (FIG. 7). Autopsy performed at the end of experiment confirmed the presence of hepatocellular carcinoma (FIG. 28A) in around 40% of C57BL/6J male mice that had been fed on a HFD for 46 weeks (12+34 weeks) starting from 5-week old [HFD (vehicle) group in FIG. 1] (FIG. 28B). The incidence rate even increased to 100% in mice fed on the HFD for 61 weeks (12+49 weeks) [HFD (vehicle) group in FIG. 3] (FIG. 28C). […] These findings support that rhArg has potent effects on prevention of liver cancer.

brown adipocyte = test: Transmission electron microscopy of interscapular brown adipose tissue; conditions: HFD-fed male mice, 600 U once a week, 4 weeks
Text: FIG. 52 illustrates the interscapular brown adipose tissue (iBAT) examined by transmission electron microscopy at Day 3 and Day 7 of a 7-day intermittent fasting cycle after N-ABD094-rhArg injection. (A) The BAT of HFD-fed male mice administered with 600 U N-ABD094-rhArg (SEQ ID NO: 50) [HFD (rhArg) group] once a week for 4 weeks, in comparison to that of HFD-fed mice treated with vehicle [HFD (vehicle) group] […] (C) As examined under 5000× magnification, autophagosome engulfed the lipid droplet and breaking into tiny particles.
After prolonged feeding on a HFD, there was a further increase in the size (FIG. 53A) and weight of the interscapular BAT (FIG. 53B) in vehicle-treated DIO mice [HFD (vehicle) group] in comparison to the lean control mice [CD (vehicle) group], which was correlated with the presence of massive amount of enlarged white-like unilobular cells (FIG. 53A). As observed under transmission electron microscopy, brown adipocyte in mice fed with HFD [HFD (vehicle) group] had massive enlarged lipid droplets (FIG. 52A). […] Many autophagosomes were actively forming and engulfing the lipid droplets (FIG. 52B). The autolysosome was also found to be breaking down small lipid droplets, mixing with plenty of lysosomes in the structure (FIG. 52C).

[2] = Insulin tolerance test (ITT)
Text: In terms of reversing insulin resistance on pre-existing obese mice, insulin tolerance test (ITT) was employed (FIG. 59).
In terms of reversing insulin resistance on pre-existing obese mice, insulin tolerance test (ITT) was employed (FIG. 68A).

[3] = Daily food intake / 7-day intermittent fasting cycle in mice
Text: One of the most noticeable effects of intermittent fasting is reduction of bodyweight. […] Specifically, C57BL/6J, which is the most commonly used mouse strain for polygenic obesity model, was used in the study. It is well-reported that C57BL/6J male mice feeding on a high-fat diet will have prominent weight gain, become obese and develop hyperinsulinemia, hyperglycemia, impaired glucose tolerance and insulin resistance [Gallou-Kabani et al., 2007, Obesity 15(8):1996-2005]. Obesity was induced in C57BL/6J male mice via feeding ad libitum a high-fat diet containing 60 kcal % fat (HFD; Research Diets, D12492) for 12-14 weeks starting from 5-week old. These mice are referred as diet-induced obese (DIO) mice. DIO mice were stratified according to bodyweight into 2 groups. […] Both groups of mice continued to feed ad libitum on the HFD throughout the treatment period. One group of age-matched C57BL/6J male mice feeding ad libitum on an ordinary rodent chow diet (CD; LabDiet, 50IF/6F) and injected with vehicle served as the lean control [CD (vehicle) group]. Food intake and bodyweight of mice were measured daily. […] DIO mice were injected with rhArg on Day 0, which was Day 7 of the previous cycle. Similarly, Day 7 of the cycle shown in FIG. 1B was Day 0 of the next cycle. […] Bodyweight gain is one of the biomarkers related to aging.
C57BL/6J male mice were fed a high-fat diet from 5-week old for 12 weeks. They were then stratified into 3 groups according to their bodyweight and individually caged: (i) one group of mice received i.p. injection of 600 U N-ABD094-rhArg (SEQ ID NO: 50) once a week [HFD (rhArg) group] and was fed ad libitum the HFD for 5 weeks; (ii) one group of mice received i.p. injection of saline once a week, and was fed a predetermined amount of HFD on each day to artificially create a 7-day intermittent fasting cycle that mimics the pattern of food intake of mice administered once a week with rhArg [HFD (artificial IF) group)]; (iii) one group of mice was injected with saline once a week and was fed ad libitum the HFD [HFD (vehicle) group].

[4] = Fat pad and organ mass at end of treatment
[5] = DIO C57BL/6J male mice on HFD, about 600 U i.p. once a week, 34 weeks
[6] = DIO C57BL/6J male mice on HFD, about 600 U once a week, 49 weeks
[7] = DIO C57BL/6J male mice on HFD, 300 U rhArg once a week and/or 300 mg/kg metformin daily
[8] = DIO C57BL/6J male mice on HFD, 600 U once a week, 5 weeks (artificial IF experiment)

B1: N-ABD094-rhArg: recombinant human arginase fused to albumin binding domain ABD094 (SEQ ID NO: 50); engineered long-acting arginine-depleting enzyme (protein)
chain: MHHHHHHDEAVDANSLAEAKEAANAELDSYGVSDFYKRLIDKAKTVEGVEALKDAILAALPSGSNNNNNNGSGGMSAKSRTIGIIGAPFSKGQPRGGVEEGPTVLRKAGLLEKLKEQECDVKDYGDLPFADIPNDSPFQIVKNPRSVGKASEQLAGKVAEVKKNGRISLVLGGDHSLAIGSISGHARVHPDLGVIWVDAHTDINTPLTTTSGNLHGQPVSFLLKELKGKIPDVPGFSWVTPCISAKDIVYIGLRDVDPGEHYILKTLGIKYFSMTEVDRLGIGKVMEETLSYLLGRKKRPIHLSFDVDGLDPSFTPATGTPVVGGLTYREGLYITEEIYKTGLLSGLDIMEVNPSLGKTPEEVTRTVNTAVAITLACFGLAREGNHKPIDYLNPPK
modifications: N-ABD094-rhArg, Synthesized in the Lab
notes: engineered long-acting arginine-depleting enzyme
Inverted grid hanging test: endurance (latency to fall) ([1]; DIO C57BL/6J male mice on HFD, weekly for 42 weeks): endurance even higher than mice in CD (vehicle) group | Inverted grid hanging test: performance ([1]; DIO ICR female mice on HFD, weekly, at 54 weeks): significantly better than mice in HFD (vehicle) group | Development of hepatocellular carcinoma (hepatocellular carcinoma; DIO C57BL/6J male mice on HFD, weekly for 34 weeks, vehicle around 40%): none of the mice developed hepatocellular carcinoma | Development of hepatocellular carcinoma (hepatocellular carcinoma; DIO C57BL/6J male mice on HFD, weekly for 49 weeks, vehicle 100%): none of the mice developed hepatocellular carcinoma | Development of hepatocellular carcinoma (hepatocellular carcinoma; DIO ICR female mice on HFD, weekly for 56 weeks, vehicle over 30%): none of the mice in HFD (rhArg) group developed hepatocellular carcinoma; also recorded: effectively prevent the development of hepatocellular carcinoma | TEM of BAT, Day 3: autophagy/lipophagy (brown adipocyte): active lipophagy at Day 3 | TEM of BAT, Day 7: autophagosomes and autolysosomes (brown adipocyte): continuous active autophagy (lipophagy) was taking place; also recorded: autophagosome and autolysosome numbers had prominently reduced by Day 7 | TEM of BAT, Day 7: mitochondria (brown adipocyte; compared with Day 3): relatively large amount of mitochondria; also recorded: an increase in mitochondria number was observed | Insulin sensitivity in ITT ([2]; 16-month old DIO C57BL/6J male mice on HFD, once a week, at 9 weeks): markedly reverse pre-existing insulin resistance; also recorded: effectively reverse insulin resistance | Insulin sensitivity in ITT ([2]; DIO C57BL/6J male mice on HFD, 300 U/week rhArg and/or 300 mg/kg metformin, after 6 weeks): marginal effect on improving insulin sensitivity but not reach statistical significant | Insulin sensitivity in ITT ([2]; DIO C57BL/6J male mice on HFD, 600 U once a week, after 2 weeks (reduced daily food intake experiment)): marked increase in insulin sensitivity by 2 weeks after treatment | Insulin sensitivity in ITT ([2]; DIO C57BL/6J male mice on HFD, 600 U once a week, at 2 and 4 weeks (artificial IF experiment)): reversal of insulin resistance and marked increase in insulin sensitivity by 2 weeks after treatment; also recorded: significant improvement in insulin sensitivity by 2 weeks | Insulin sensitivity in ITT ([2]; DIO C57BL/6J male mice on HFD, about 600 U once a week, at 16 and 32 weeks): complete reversion of insulin resistance; also recorded: effectively reverse insulin resistance | Insulin sensitivity in ITT ([2]; DIO C57BL/6J male mice on HFD, rhArg weekly and/or 0.33 mg/day RA, after 6 weeks): marginal effect on improving insulin sensitivity but not reach statistical significant | Insulin sensitivity in ITT ([2]; DIO ICR female mice on HFD, once a week, at 15 and 31 weeks): better insulin sensitivity than age-matched mice in CD (vehicle) group | Pattern of food intake (intermittent fasting cycles) ([3]; 16-month old DIO C57BL/6J male mice on HFD, about 600 U once a week, 25 weeks): induce repetitive 7-day intermittent fasting cycles | Pattern of food intake (intermittent fasting cycles) ([3]; 17-month old C57BL/6J male mice on chow diet, about 600 U once a week, 21 weeks): induce repetitive 7-day intermittent fasting cycles | Pattern of food intake (intermittent fasting cycles) ([3]; 25-month old C57BL/6J male mice on chow diet, about 600 U once a week, 30 weeks): prominent repetitive 7-day intermittent fasting cycles | Pattern of food intake (intermittent fasting cycle) ([3]; DIO C57BL/6J male mice on HFD, 200 U rhArg i.p. once a week and/or 0.33 mg RA daily): weak 7 days intermittent fasting cycle | Total food intake per week, less than HFD (vehicle) group ([3]; DIO C57BL/6J male mice on HFD, 200 U rhArg i.p. once a week and/or 0.33 mg RA daily by gastric feeding, 10 weeks): slight, but insignificant decrease | Pattern of food intake (intermittent fasting cycle) ([3]; DIO C57BL/6J male mice on HFD, 200 U rhArg i.p. once a week and/or 0.33 mg RA daily, listed as rhArg): 7-day pattern of decreased food intake followed by an increase of food intake, but the magnitude was less than HFD (rhArg+RA) group | Pattern of food intake (intermittent fasting cycle) ([3]; DIO C57BL/6J male mice on HFD, 300 U rhArg i.p. once a week and/or 300 mg/kg metformin daily): weak intermittent fasting cycle | Total food intake per week, less than HFD (vehicle) group ([3]; DIO C57BL/6J male mice on HFD, 300 U rhArg i.p. once a week and/or 300 mg/kg metformin daily by gastric feeding, 9 weeks): did not induce significant change in total food intake per week | Pattern of food intake (intermittent fasting cycle) ([3]; DIO C57BL/6J male mice on HFD, 300 U rhArg i.p. once a week and/or 300 mg/kg metformin daily, listed as rhArg): 7-day pattern of decreased food intake followed by an increase of food intake, but the magnitude was less than HFD (rhArg+Met) group | Total food intake per week, less than HFD (vehicle) group ([3]; DIO C57BL/6J male mice on HFD, 600 U i.p. once a week, 5 weeks (artificial IF experiment)): 26% | Reduction of total food intake per week ([3]; DIO C57BL/6J male mice on HFD, 600 U i.p. once a week, 5 weeks (reduced daily food intake experiment)): 30% | Pattern of food intake (intermittent fasting cycles) [3, 5]: repetitive cycles of intermittent fasting; also recorded: repetitive 7-day intermittent fasting cycles | Total food intake per week, less than HFD (vehicle) group [3, 5]: about 30% | Pattern of food intake (intermittent fasting cycles) [3, 6]: repetitive 7-day intermittent fasting cycles | Total food intake per week, less than HFD (vehicle) group [3, 6]: about 29% | Pattern of food intake (intermittent fasting cycles) ([3]; DIO C57BL/6J male mice on HFD, about 600 U once a week, 49 weeks, listed as rhArg): repetitive cycles of intermittent fasting | Pattern of food intake (intermittent fasting cycles) ([3]; DIO ICR female mice on HFD, about 1200 U i.p. once a week, 56 weeks): repeatedly occurring in ICR female mice throughout the 56 weeks of treatment period; also recorded: repetitive 7-day intermittent fasting cycles | Fat pad mass of perirenal and inguinal WAT, interscapular BAT and liver mass ([4]; 17-month old C57BL/6J male mice on chow diet, once a week, 21 weeks): significant reduction in the fat pad mass | Mass of liver ([4]; 17-month old C57BL/6J male mice on chow diet, once a week, 21 weeks, versus CD Old (vehicle) and CD Young (vehicle)): the lowest amongst all 3 groups | Mass of organs including liver, kidney and BAT [4, 7]: cannot reduce the mass of most organs | Visceral and subcutaneous fat mass [4, 7]: did not reduce body fat | Fat pad mass of perirenal and inguinal WAT and interscapular BAT [4, 8]: marked reduction in the fat pad mass | Liver mass [4, 8]: prominently reduced to the same extent for both groups | Liver weight ([4]; DIO C57BL/6J male mice on HFD, 600 U once a week, 12 weeks): the weight was similar to the lean control | Fatty pancreas ([4]; DIO C57BL/6J male mice on HFD, half dose alone): can also reverse the fatty pancreas | Mass of organs including liver, pancreas and BAT ([4]; DIO C57BL/6J male mice on HFD, rhArg once a week alone or 0.33 mg RA daily alone): can already reduce the mass of most organs | Visceral and subcutaneous fat mass ([4]; DIO C57BL/6J male mice on HFD, rhArg once a week and/or 0.33 mg RA daily): did not reduce body fat | Fat pad mass (WAT, BAT) and liver, kidney and heart mass ([4]; DIO ICR female mice on HFD, once a week, 56 weeks): significantly less than that of HFD-fed mice treated with vehicle
